Measurements reported in article doi:10.1101/2025.02.18.638932, “CHIP protects lysosomes from CLN4 mutant-induced membrane damages” (bioRxiv, 2025).

Target: the molecule itself
Experiment: immunoblotting of SDS-resistant high molecular weight species; purified DNAJC5 protein incubated with buffer or calf liver cytosol with or without ATP at 37 °C for 30 min, then immunoblotting

B1: recombinant human DNAJC5 L116Δ (natural protein, UniProt Q9H3Z4 1-198, looked up)
chain: MADQRQRSLSTSGESLYHVLGLDKNATSDDIKKSYRKLALKYHPDKNPDNPEAADKFKEINNAHAILTDATKRNIYDKYGSLGLYVAEQFGEENVNTYFVLSSWWAKALFVFCGLTCCYCCCCLCCCFNCCCGKCKPKAPEGEETEFYVSPEDLEAQLQSDEREATDTPIVIQPASATETTQLTADSHPSYHTDGFN
notes: DNAJC5, human, CLN4 disease mutant L116Δ (p.L116del, c.346-348del); A TEV cleavage site lies between the GST tag and the protein; also called hDNAJC5 L116Δ; purified L116Δ mutant; source: E. coli BL21(DE3), purified (Glutathione Sepharose, eluted by TEV protease)
binding result: binds
